In patent US20120142040:

System: H3K4me2-biotin peptide (1ARTKme2QTARKSTGGKAPRKQLYKbiotin)
Sequence (chain, as listed by the source): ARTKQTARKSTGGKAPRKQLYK

GST-LSD1 (prepared in-house)
shift of the mass spectra after the demethylase assay (MassSQUIRM, MALDI mass spectrometry): Upon addition of LSD1, we observed a shift of spectra to greater mass, indicating a mixed population of methylation states
